Substrate: CCCCCCCC(O)CC(=O)SCCNC(C)=O
Assay: enzyme turnover, coupled PaFabA-PaFabV fluorescence assay (estimated KM) and direct UV assay
Assay type: biochemical, Pseudomonas aeruginosa

B1: PaFabA (3-hydroxyacyl-[ACP] dehydratase) (Pseudomonas aeruginosa PAO1) (protein)
chain: MTKQHAFTREDLLRCSRGELFGPGNAQLPAPNMLMIDRIVHISDVGGKYGKGELVAELDINPDLWFFACHFEGDPVMPGCLGLDAMWQLVGFYLGWQGNPGRGRALGSGEVKFFGQVLPTAKKVTYNIHIKRTINRSLVLAIADGTVSVDGREIYSAEGLRVGLFTSTDSF
  Km: 400 µM

Reference: publication PMC4840175, “A Substrate Mimic Allows High-Throughput Assay of the FabA Protein and Consequently the Identification of a Novel Inhibitor of Pseudomonas aeruginosa FabA” (Journal of Molecular Biology, 2016)
